This test concerns A549 human non-small cell lung cancer line. Nature of the test: Transwell cell migration assay. In kind it is cell-based. Conditions: transfected A549, transwell, 24 h; mean over three experiments. An excerpt:
Figure 6 Talin R8 Mutations Disrupt the Interaction with DLC1 and Affect Its Biological Activity (A) Wild-type GST-talin fragments pull down more DLC1 than the 2E mutants. Extracts of HEK293T cells transfected with GFP-DLC1 and GST-talin constructs were subjected to pull-down assays with glutathione beads followed by immunoblotting with anti-GST and anti-DLC1 on the same membrane (top). The transfected GFP-DLC1 in each sample is shown by the anti-DLC1 blot (bottom) as a loading control. (B) Wild-type GST-talin fragments compete efficiently with endogenous talin to form a complex with DLC1. The supernatants collected after pull-down assay from (A) were reused for co-immunoprecipitation with an anti-talin antibody and blotted with anti-DLC1 (top). A small aliquot from each lane was blotted for endogenous talin as a loading control (bottom). (C) Co-expression of GST or GST-talin fragments (wild-type or 2E mutant) with GFP DLC1 in A549 cells. […] Transfected A549 cells were cultured in G418 for 3 weeks, and colonies counted and quantitated (top). […] Transfected A549 cells were grown for 3 weeks in soft agar, and colonies counted and quantitated (top). […] Lysates from migrated cells were quantitated (top), and representative microscopic images of the migrated cells are shown (bottom). […]

B1: GST-R8: GST-tagged talin R8, amino acids 1,453–1,580 (protein)
chain: NSQAGQQGLVEPTQFARANQAIQMACQSLGEPGCTQAQVLSAATIVAKHTSALCNSCRLASARTANPTAKRQFVQSAKEVANSTANLVKTIKALDGDFTEENRAQCRAATAPLLEAVDNLSAFASNPE
modifications: left off: GST, end not stated, kept
B1: the cell migration result was “no detectable biological activity”.

(Values after PMC4938799, “LD Motif Recognition by Talin: Structure of the Talin-DLC1 Complex” (Structure(London, England:1993), 2016).)
